Data on four substances can be found in patent publication US20150322119A1.

As usually defined, the Kd is the free concentration of one partner at which half of the binding sites on the other are occupied at equilibrium, for simple one-to-one binding. Read a low Kd as tighter binding.

Experiment [1] addresses murine FcγRIIB, soluble form (mouse) (UniProt P08101). As to the kind of experiment: SPR, equilibrium KD. (In general: Surface plasmon resonance follows binding to a sensor surface in real time, without labels.)
Chain of UniProt P08101 (P08101 30-207 limits assumed): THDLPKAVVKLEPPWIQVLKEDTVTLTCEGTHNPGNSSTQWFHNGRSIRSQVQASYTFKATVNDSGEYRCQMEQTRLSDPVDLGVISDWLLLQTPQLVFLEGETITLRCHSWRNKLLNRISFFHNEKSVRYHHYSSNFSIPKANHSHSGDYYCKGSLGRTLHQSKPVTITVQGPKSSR
Experiment [2] addresses murine FcγRIII, soluble form (mouse) (UniProt P08508). As to the kind of experiment: SPR, equilibrium KD.
Chain of UniProt P08508 (P08508 31-215 limits assumed): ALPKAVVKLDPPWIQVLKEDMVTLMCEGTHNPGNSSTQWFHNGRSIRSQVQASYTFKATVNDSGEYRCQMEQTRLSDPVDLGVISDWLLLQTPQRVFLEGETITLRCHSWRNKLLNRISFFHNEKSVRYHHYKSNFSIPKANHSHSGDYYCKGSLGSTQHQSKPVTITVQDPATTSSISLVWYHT
The next experiment deals with mouse FcRn (mouse) (UniProt Q61559). The experiment can be described thus: SPR, FcRn coated on CM5 chip, antibody flowed at pH 6.0.
Chain of UniProt Q61559 (Q61559 22-297 limits assumed): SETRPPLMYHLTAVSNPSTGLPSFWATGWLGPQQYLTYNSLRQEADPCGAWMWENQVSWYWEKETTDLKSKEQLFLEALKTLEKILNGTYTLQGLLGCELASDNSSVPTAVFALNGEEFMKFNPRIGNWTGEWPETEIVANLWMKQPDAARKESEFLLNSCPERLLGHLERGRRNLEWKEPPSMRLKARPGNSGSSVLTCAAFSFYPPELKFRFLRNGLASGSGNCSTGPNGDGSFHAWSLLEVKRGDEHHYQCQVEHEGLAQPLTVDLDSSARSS
The target of experiment [3] is murine FcγRI extracellular domain with C-terminal 6×His-tag (mouse) (UniProt P26151). The experiment can be described thus: SPR, equilibrium KD.
Chain of UniProt P26151 (P26151 other isoform, or with tags, fused parts or gaps): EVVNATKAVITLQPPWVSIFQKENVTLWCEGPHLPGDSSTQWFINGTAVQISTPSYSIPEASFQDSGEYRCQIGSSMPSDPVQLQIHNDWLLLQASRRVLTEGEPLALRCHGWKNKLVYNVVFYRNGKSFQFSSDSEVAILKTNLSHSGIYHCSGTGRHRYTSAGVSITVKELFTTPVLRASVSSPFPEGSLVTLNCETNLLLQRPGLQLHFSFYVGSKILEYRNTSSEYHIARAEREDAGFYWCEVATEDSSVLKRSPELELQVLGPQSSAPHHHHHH
Experiment [4] deals with murine FcγRIV, soluble form (mouse). As to the kind of experiment: SPR, equilibrium KD.

Chain of mouse anti-mouse CTLA-4 antibody 9D9, mouse IgG2a isotype (P01863 whole entry): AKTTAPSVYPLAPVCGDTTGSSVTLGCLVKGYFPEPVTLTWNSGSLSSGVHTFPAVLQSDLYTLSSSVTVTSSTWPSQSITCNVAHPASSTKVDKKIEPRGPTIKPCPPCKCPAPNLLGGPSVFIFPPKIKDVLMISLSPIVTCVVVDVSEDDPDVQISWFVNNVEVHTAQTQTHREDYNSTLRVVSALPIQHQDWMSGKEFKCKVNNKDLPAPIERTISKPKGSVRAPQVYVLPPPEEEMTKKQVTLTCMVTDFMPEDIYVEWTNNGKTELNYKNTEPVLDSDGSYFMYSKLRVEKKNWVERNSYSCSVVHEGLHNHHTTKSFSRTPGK

On to “mouse anti-mouse CTLA-4 antibody 9D9, mouse IgG1 isotype”, for which the Kd came to 479 nM in experiment [1], 1880 nM in experiment [2] and 22.4 nM with mouse FcRn (mouse).
In the experiment with mouse FcRn (mouse), “mouse anti-mouse CTLA-4 antibody 9D9, mouse IgG1 isotype containing a D265A mutation (from UniProt P01868 1-324)” displayed a Kd of 24.6 nM.
As to “mouse anti-mouse CTLA-4 antibody 9D9, mouse IgG2a isotype”, the dissociation constant (Kd) in experiment [3] stood at 32.7 nM; in experiment [1], 1410 nM; in experiment [2] it was 1500 nM; in experiment [4] it was 29.4 nM; with mouse FcRn (mouse), 13.5 nM.
Consider “mouse anti-mouse CTLA-4 antibody 9D9, mouse IgG2b isotype (original isotype, derived from the hybridoma)”, for which the Kd in experiment [1] was determined as 748 nM; in experiment [2], 2440 nM; in experiment [4], 56.3 nM; in the experiment with mouse FcRn (mouse), 19.7 nM.
